Reference: patent US20040006214A1

Molecular target: hepatitis C virus in patient serum
Assay: immobilized adsorbent shaken with HCV patient serum 37 C 2 h; HCV RNA in supernatant against saline control

“peptide having the amino acid sequence of 57 residues in the C3 domain of protein G with cysteine ad” was tested. Which Adsorption rate (%) did it give?
Its Adsorption rate (%) is 28%.

For “protein G (Pharmacia LKB) (from UniProt P19909 303-497)”, which Adsorption rate (%) is on record?
The Adsorption rate (%) was 82%.
